Data taken from patent US20030170760A1.

Target: T1, Ste2 (yeast) (UniProt D6VTK4)
T1 sequence (looked up): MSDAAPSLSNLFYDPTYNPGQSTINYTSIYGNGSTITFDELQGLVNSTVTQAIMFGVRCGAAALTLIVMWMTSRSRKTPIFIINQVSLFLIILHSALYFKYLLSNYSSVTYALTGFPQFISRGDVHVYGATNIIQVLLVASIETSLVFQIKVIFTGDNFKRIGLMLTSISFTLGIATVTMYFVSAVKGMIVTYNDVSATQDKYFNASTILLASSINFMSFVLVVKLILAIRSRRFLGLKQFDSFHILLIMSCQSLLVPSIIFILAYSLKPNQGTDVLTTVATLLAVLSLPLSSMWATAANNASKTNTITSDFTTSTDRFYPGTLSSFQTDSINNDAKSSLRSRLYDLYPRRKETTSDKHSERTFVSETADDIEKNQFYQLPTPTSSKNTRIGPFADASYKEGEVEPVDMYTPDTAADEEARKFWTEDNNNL
Test: cell-based or functional assay

Substance: α-factor (from UniProt P01149 90-102) (peptide)
- Maximum Fold Induction, lacZ assay, Fus1p-lacZ reporter, ligand incubation 1 hr, Gα GPA1: 22 fold
- Maximum Fold Induction, lacZ assay, Fus1p-lacZ reporter, ligand incubation 2 hrs, Gα GPA1: 123 fold
- Maximum Fold Induction, lacZ assay, Fus1p-lacZ reporter, ligand incubation 3 hrs, Gα GPA1: 218 fold
- Maximum Fold Induction, lacZ assay, LBF system (p8op-lacZ reporter), ligand incubation 1 hr, Gα GPA1: 29 fold
- Maximum Fold Induction, lacZ assay, LBF system (p8op-lacZ reporter), ligand incubation 2 hrs, Gα GPA1: 63 fold
- Maximum Fold Induction, lacZ assay, LBF system (p8op-lacZ reporter), ligand incubation 3 hrs, Gα GPA1: 36 fold
